Experimental data published in the supplement of paper PMC9170038.

System: MS2 coat protein
Assay: apparent KD of MS2 coat protein; designed switch direction (-1 OFF switch, 1 ON switch): 1; higher = weaker reporter binding
Method in brief: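 Apparent KD, taken as the median over clusters for each design, was obtained by curve-fitting normalised cluster fluorescence. Designed RNA switches had been transcribed on Illumina chips by stalled E. coli RNA polymerase and titrated with SNAP-549-labelled MS2 coat protein, doubling from 0.7 or 1.5 nM to 3 µM.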

[1] = input ligand: microRNA oligo, concentration not stated
[2] = Eterna round: R95, input ligand: FMN 200 uM
[3] = Eterna round: R95, input ligand: microRNA oligo, concentration not stated
[4] = Eterna round: R95, input ligand: none

Sequence	apparent KD of MS2 coat protein (input ligand: FMN 200 uM)	apparent KD of MS2 coat protein [1]	apparent KD of MS2 coat protein (input ligand: none)	apparent KD of MS2 coat protein [2]	apparent KD of MS2 coat protein [3]	apparent KD of MS2 coat protein [4]
ACUUGCGGCACAGGAUAUGGGUGCCUGUACAUGAGGAUCACCCAUGUUAAGGGACGGAUUACGAACCAGAAGGGUGAGGCGGGC [Aqube] (Eterna round: R96, puzzle: Same State NG 2)	1350 nM	296 nM	300 nM	–	–	–
ACUUGCUUUUUGCUCAUUUUAUGUCCGAAACAUGAGGAUCACCCAUGUGUAGAUUAUGUGUUGUUUUUGAUACGUGA [JR_SHM208A_Sub067] (puzzle: Sensor for hsa-mir-208a)	–	–	–	24.6 nM	20.7 nM	26.3 nM
AGAGGAGGCGCAGGAUAUACGACGGAGGACGUGGUAGAAGGGUGCAUGCGAUGACAUGAGGAUCACCCAUGUACCGCGCGACGA [AK SSNG1-V2-16] (Eterna round: R96, puzzle: Same State NG 1)	337 nM	14.2 nM	78.9 nM	–	–	–
AGAUCAUGACGAGGAUAUGGAACAUGAGGAUCACCCAUGUAUGUUCCAUAACGCGAACGACGAAUCCAGAAGGCGUCGUGAUCA [Mat - Same State NG 2 - JL mod - D42] (Eterna round: R96, puzzle: Same State NG 2)	5.24 nM	21.6 nM	26.3 nM	–	–	–
AGAUCAUGACGAGGAUAUGGUACAUGAGGAUCACCCAUGUAUGUAUCAUAACGCGAAUGACGAAACCAGAAGGCGUCGUGAUCA [Mat - Same State NG 2 - JL mod - D43] (Eterna round: R96, puzzle: Same State NG 2)	8.74 nM	11.9 nM	15.8 nM	–	–	–
AGAUGUUAAUCAGGAUAUGGGCACAUGAGGAUCACCCAUGUAUUUUCGAUGCUAUGUGGAGACGUCUAGAAGGGAUGGCUAACA [SameState NG2 #86] (Eterna round: R96, puzzle: Same State NG 2)	165 nM	126 nM	185 nM	–	–	–
AGAUGUUAAUCAGGAUAUGGGCCCGUGAGGAUCACCCACGGAAAGUAGGUCCAACAGGGCCCAGUCUAGAAGGGAUGGCUAACA [malcolm 80 ssNG2 F5+F7.2] (Eterna round: R96, puzzle: Same State NG 2)	112 nM	19.8 nM	84 nM	–	–	–
AGCCGAAGCGCAGGAUAUACAUGCACACAUGAGGAUCACCCAUGUGGCAACACGUGGUAGUGAUUGUAGAAGGGUGCUCGGCGC [Omei SS(NG)2 Cv16] (Eterna round: R96, puzzle: Same State NG 2)	60.1 nM	34.4 nM	51 nM	–	–	–
AGCCUGAGUCGAGGAUAUUAUGGAUCAAUUAAUACAUGAGGAUCACCCAUGUAAUUAAUUUAACAUGAGAAGGCGACUCAGGCA [SSNG2/10-A1] (Eterna round: R96, puzzle: Same State NG 2)	7.72 nM	5.43 nM	8.66 nM	–	–	–
AGCGAGAUAGGCAAGGAUAUGCUGGGUUUCACAUGAGGAUCACCCAUGUCAUAGGUAAUGUCCGAGCAGAAGGUGCAUUCUCUUU [ak bound state multiloop solution] (puzzle: Same State 2)	–	–	–	–	172 nM	–
AGCUAUCGAAAACGAUAGCAAAGGCAUGUACAUGAGGAUCACCCAUGUCAUGUACAAGCUUUUUGCUCGUCUUAAAA [Zipper 23 - 3] (Eterna round: R96, puzzle: Sensor for hsa-mir-208a)	660 nM	14.1 nM	440 nM	–	–	–
AGCUAUCGAAAACGAUAGCAAAGGCAUGUACAUGAGGAUCACCCAUGUCAUGUACAAGCUUUUUGCUCGUCUUAAAA [Zipper 23 - 3] (puzzle: Sensor for hsa-mir-208a)	–	–	–	799 nM	15.9 nM	983 nM
AGCUAUUACGAAGGAUAUUGUGACAUGAGGAUCACCCAUGUUUUCAUGAUUUAUUGUGAUCACGUCGAGAAGGUUGUACUAACA [SameState NG2 #29] (Eterna round: R96, puzzle: Same State NG 2)	59.2 nM	50.8 nM	51.8 nM	–	–	–
AGGAAGGAGACUGAGGAUAUCGUAAGGAGGACAUGAGGAUCACCCAUGUGUAUAGGAUUGGAGGACGAGAAGGCAGAGGAGUGGG [JR_SS2_Sub048] (puzzle: Same State 2)	–	–	–	29.7 nM	19.7 nM	26.5 nM
AGGCAAGCUUUUUGCUGGUAUGGAGGAUAACAUGAGGAUCACCCAUGUAUUGGAGGUGUUGAAGAUUUGAGAAAGAA [JR_SHM208A_Sub005] (puzzle: Sensor for hsa-mir-208a)	–	–	–	118 nM	149 nM	139 nM
AGGCUCAGACUAGGAUAUAUGUGGUCACAUGAGGAUCACCCAUGUCUCGAGCUUCGGCUCGAGGCAUAGAAGGAGUCUGAGCCA [SSNG2/5-D1] (Eterna round: R96, puzzle: Same State NG 2)	459 nM	14 nM	713 nM	–	–	–
AGGCUGAGUCGAGGAUAUGAUCUUCAUAUAAUAACAUGAGGAUCACCCAUGUAUAAUUACAUGGAUCAGAAGGCGACUCAGCCA [SSNG2/13-B1] (Eterna round: R96, puzzle: Same State NG 2)	35.4 nM	414 nM	584 nM	–	–	–
AGGCUGAGUCGAGGAUAUUAUGGAUCCUCUAAUACAUGAGGAUCACCCAUGUAAUUAAUUAUACAUGAGAAGGUGACUCAGCCA [SSNG2/12-B3] (Eterna round: R96, puzzle: Same State NG 2)	612 nM	129 nM	280 nM	–	–	–
AGGGAGGAUGCAGGAUAUAUAAGACAUGAGGAUCACCCAUGUACCUCGUGGAGAAGAAAGGAGAGAUAGAAGGGUAGUGAGGAA [Default title] (Eterna round: R96, puzzle: Same State NG 2)	285 nM	200 nM	258 nM	–	–	–
AGGGCCGCGGCACAGGAUAUGCACAGGUUCACAUGAGGAUCACCCAUGUGCUCUAGAUAGCUUGAGCAGAAGGGUGUCAUGGUAA [Beadi] (puzzle: Same State 2)	–	–	–	16.3 nM	18.2 nM	27.9 nM
AGUCCAGCAAGAGCUGGACAAAAGCAUGUACAUGAGGAUCACCCAUGUCAUGUACAAGCUUUUUGCUCGUCUUAAAA [Mat - hsa-mir-208a - Mod of JL - D3] (puzzle: Sensor for hsa-mir-208a)	–	–	–	456 nM	16 nM	729 nM
AGUCCAGCCAGAGCUGGACAAAAGCAUGUACAUGAGGAUCACCCAUGUCAUGUACAAGCUUUUUGCUCGUCUUAAUA [Mat - hsa-mir-208a - Mod of JL - D37] (puzzle: Sensor for hsa-mir-208a)	–	–	–	632 nM	15.4 nM	621 nM
AGUCCAGCCAGAGCUGGACAAAAGCAUGUACAUGAGGAUCACCCAUGUUCAUGUACAAGCUUUUUGCUCGUCAAAAG [Mat - hsa-mir-208a - Mod of JL - 69] (puzzle: Sensor for hsa-mir-208a)	–	–	–	304 nM	17.7 nM	233 nM
AGUCCAGCCUGAGCUGGACAAAAGCAUGUACAUGAGGAUCACCCAUGUCAUGUACAAGCUUUUUGCUCGAAAUAAUA [Mat - hsa-mir-208a - Mod of JL - D32] (Eterna round: R96, puzzle: Sensor for hsa-mir-208a)	626 nM	14.4 nM	561 nM	–	–	–
AGUCCAGCCUGAGCUGGACAAAAGCAUGUACAUGAGGAUCACCCAUGUCAUGUACAAGCUUUUUGCUCGAAAUAAUA [Mat - hsa-mir-208a - Mod of JL - D32] (puzzle: Sensor for hsa-mir-208a)	–	–	–	653 nM	14.6 nM	938 nM
AGUCCAGCCUGAGCUGGACAAAAGCAUGUACAUGAGGAUCACCCAUGUCAUGUACAAGCUUUUUGCUCGUAAUAAUA [Mat - hsa-mir-208a - Mod of JL - D31] (puzzle: Sensor for hsa-mir-208a)	–	–	–	301 nM	12.4 nM	477 nM
AGUCCAGCCUGAGCUGGACAAAAGCAUGUACAUGAGGAUCACCCAUGUCGUGUACAAGCUUUUUGCUCGUCUUAAUA [Zipper 49 - 4] (puzzle: Sensor for hsa-mir-208a)	–	–	–	285 nM	13.5 nM	311 nM
AGUCCAGCCUGAGCUGGACAAAAGCGUGUACAUGAGGAUCACCCAUGUUCAUGUACAAGCUUUUUGCUCGUCUUAAA [Zipper 52 - 6] (puzzle: Sensor for hsa-mir-208a)	–	–	–	25.7 nM	20 nM	127 nM
AGUCCAGCGAAAGCUGGACAGAAGCAUGUACAUGAGGAUCACCCAUGUUCAUGUACAAGCUUUUUGCUCGUCUUAAA [JL mod - D95 - 1] (puzzle: Sensor for hsa-mir-208a)	–	–	–	476 nM	14.9 nM	418 nM
AGUGGUGGUGCAGGAUAUGCCUCAAAAGCAUGGGUAGAAGGGCAAUACAAAGAAACUCUGACAUGAGGAUCACCCAUGUAGCAA [Eternabot solution 43] (Eterna round: R96, puzzle: Same State NG 1)	449 nM	241 nM	395 nM	–	–	–
